Laboratory results as given in US7090834B1, “Vascular endothelial cell growth factor variants and uses thereof” (Genentech, Inc., priority 1999, dated 2006).
Positions count from the first letter of the chain named. In names and notes the source's numbering stands.

B1: LK-VRB-19s (ligand, human, UniProt P15692-4 27-135, looked up)
chain: APMAEGGGQNHHEVVKFEDVYRRSSCHPIETLVDIFQEYPDEIEYIFKPSCVPLMRCGGCCNSEMRECVPTEESNITMQIMRIKPHQGQHIGEMSFLQHNKCECRPKKD
notes: one of the two is probably misprinted
B2: LK-VRB-4s: VEGF (1–109) variant with F17I/M18E/Y21F/Q22E/Y25I (protein)
chain: B1 chain with F17I, Y21F, R22E, S25I, S63D, M65G, R66L
B3: LK-VRB-5s: VEGF (1–109) variant with D63S/L66R (protein)
chain: B1 chain with E18M, R22Q, S25Y, M65G
B4: LK-VRB-3s: VEGF (1–109) variant with F17I/M18E/Y21F/Q22K/Y25S (protein)
chain: B1 chain with F17I, Y21F, R22K, S63D, M65G, R66L
B5: LK-VRB-6s: VEGF (1–109) variant with D63S/G65A/L66T (protein)
chain: B1 chain with E18M, R22Q, S25Y, M65A, R66T
B6: LK-VRB-14s (ligand, human, UniProt P15692-4 27-135, looked up)
chain: B1 chain with E18M, Y21L, S25Y
B7: LK-VRB-13s (ligand, human, UniProt P15692-4 27-135, looked up)
chain: B1 chain with R22Q
B8: LK-VRB-12s (ligand, human, UniProt P15692-4 27-135, looked up)
chain: B1 chain with S25Y
B9: LK-VRB-10s (ligand, human, UniProt P15692-4 27-135, looked up)
chain: B1 chain with E18M, R22Q
B10: LK-VRB-11s (ligand, human, UniProt P15692-4 27-135, looked up)
chain: B1 chain with Y21L, R22Q, S25Y
B11: LK-VRB-17s (ligand)
chain: B1 chain with Y21L, S25Y
B12: LK-VRB-18s (ligand)
chain: B1 chain with Y21L, R22Q

Target: KDR receptor (Homo sapiens, UniProt P35968)
Experiment: KDR receptor binding ELISA (inhibition of biotinylated native VEGF (8–109) binding)
Settings: second figure of the cell, variant midpoint concentration divided by that of native VEGF
Protocol: (§1) Receptor binding assays were performed in 96-well immunoplates (Maxisorp, Nunc-Immunoplate, Nalge Nunc International, Rochester, N.Y.). Each well was coated with 100 μl of a solution containing 8 μg/ml of a monoclonal antibody to KDR known as MAKD5 (Genentech, South San Francisco, Calif.) in 50 mM carbonate buffer at pH 9.6 and incubated at 4° C. overnight. The supernatant was discarded, the wells were washed three times in washing buffer (0.05% Tween 20 in PBS), and the plate was blocked (150 μl per well) with block buffer (0.5% BSA, 0.01% thimerosal in PBS) at room temperature for one hour. The supernatant was discarded, and the wells were washed.
Aliquots of this mixture (100 μl) were added to the precoated microtiter wells and the plate was incubated for 1 hour at room temperature. […] The wells were then incubated with 3, 3′, 5,5′-tetramethyl benzidine (0.2 gram/liter; Kirkegaard & Perry Laboratories, Gaithersburg, Md.) for about 10 minutes at room temperature. Absorbance was read at 450 nm on a Vmax plate reader (Molecular Devices, Menlo Park, Calif.).
(§2) Titration curves were fit with a four-parameter nonlinear regression curve-fitting program (KaleidaGraph, Synergy Software, Reading, Pa.).

KDR receptor, sequence (P35968 20-327 limits assumed): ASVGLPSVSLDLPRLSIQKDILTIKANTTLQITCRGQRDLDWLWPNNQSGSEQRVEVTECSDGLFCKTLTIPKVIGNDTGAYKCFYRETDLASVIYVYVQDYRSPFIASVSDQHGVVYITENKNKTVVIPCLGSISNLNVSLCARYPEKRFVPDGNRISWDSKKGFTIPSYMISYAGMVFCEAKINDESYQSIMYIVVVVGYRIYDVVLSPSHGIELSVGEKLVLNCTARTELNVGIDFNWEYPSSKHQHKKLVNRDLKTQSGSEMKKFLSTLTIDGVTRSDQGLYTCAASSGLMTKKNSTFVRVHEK

Relative Binding Affinity, KDR Receptor: ratio to native VEGF (8–109)	Molecule
7 nM/7	B1
1 nM/1	B2
1 nM/1	B3
1 nM/1	B4
0.5 nM/0.5	B5
0.5 nM/0.5	B6
14 nM/14	B7
0.4 nM/0.4	B8
0.5 nM/0.5	B9
2 nM/2	B10

Target: Flt-1 receptor
Experiment: Flt-1 receptor binding ELISA (inhibition of biotinylated native VEGF binding to Flt-IgG)
Settings: first figure of the cell, Flt-IgG, read-out: Relative Binding Affinity, FLT-1 Receptor: concentration at midpoint absorbance
Protocol: Receptor binding assays were performed in 96-well immunoplates (Maxisorp, Nunc-Immunoplate, Nalge Nunc International, Rochester, N.Y.). Each well was coated with 100 μl of a solution containing 2 μg/ml of rabbit F(ab′)2 to human IgG Fc (Jackson ImmunoResearch, West Grove, Pa.) in 50 mM carbonate buffer at pH 9.6 and incubated at 4° C. overnight. The supernatant was then discarded, the wells were washed three times in washing buffer (0.05% Tween 20 in PBS), and the plate was blocked (150 μl per well) with block buffer (0.5% BSA, 0.01% thimerosal in PBS) at room temperature for one hour. The supernatant was discarded, and the wells were washed.
The wells were filled with 100 μl of a solution containing Flt-IgG (a chimeric Flt-human Fc molecule) at 50 ng/ml in assay buffer (0.5% BSA, 0.05% Tween 20 in PBS). The wells were incubated at room temperature for 1 hour and then washed three times in wash buffer (0.05% Tween 20 in PBS).
Aliquots of the mixture (100 μl) were added to the precoated microtiter wells and the plate was incubated for 2 hours at room temperature. […] The wells were then incubated with 3, 3′, 5,5′-tetramethyl benzidine (0.2 g/liter, Kirkegaard & Perry Laboratories, Gaithersburg, Md.) for about 10 minutes at room temperature. Absorbance was read at 450 nm on a Vmax plate reader (Molecular Devices, Menlo Park, Calif.).
as §2

Flt-1 receptor, sequence (P17948 27-327 limits assumed): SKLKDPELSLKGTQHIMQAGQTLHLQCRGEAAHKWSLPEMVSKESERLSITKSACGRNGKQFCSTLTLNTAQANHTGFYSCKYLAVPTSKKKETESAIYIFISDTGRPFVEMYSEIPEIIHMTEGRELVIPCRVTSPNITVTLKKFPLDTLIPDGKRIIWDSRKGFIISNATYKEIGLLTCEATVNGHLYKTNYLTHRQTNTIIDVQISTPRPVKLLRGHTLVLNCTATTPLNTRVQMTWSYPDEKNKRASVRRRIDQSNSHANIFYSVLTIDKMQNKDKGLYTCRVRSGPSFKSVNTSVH

IC50	Molecule
> 400 nM	LK-VRB-2s*: VEGF (1–109) variant with D63S/G65M/L66R; KDR selective variant

Same assay, conditions: second figure of the cell, fold less binding than native VEGF

Relative Binding Affinity, FLT-1 Receptor: ratio to native VEGF (8–109)	Molecule
/>35000	B1
/>1900	B11
/>2900	B6
/>14000	B7
/>5600	B8
/>2400	B9
/>14000	B10

Target: T1, KDR (1-3) (UniProt P35968 20-327, limits assumed)
T1 construct: domain: domains 1 to 3; Genentech reagent; also called KDR (1-3) monomer; domains 1 to 3 of KDR
Experiment: competition ELISA vs biotinylated native VEGF (8-109) for KDR (1-3)
Settings: not given
Protocol: as §1
Aliquots of this mixture (100 μl) were added to the precoated microtiter wells and the plate was incubated for 1 hour at room temperature. […] The wells were then incubated with 3, 3', 5,5'-tetramethyl benzidine (0.2 gram/liter; Kirkegaard & Perry Laboratories, Gaithersburg, Md.) for about 10 minutes at room temperature. Absorbance was read at 450 nm on a Vmax plate reader (Molecular Devices, Menlo Park, Calif.).
as §2

T1 sequence (P35968 20-327 limits assumed): as the sequence (P35968 20-327 limits assumed) above

relative binding affinity (ratio to native VEGF (8-109))	IC50	Molecule
7 ratio	–	B1
130 ratio	–	B11
130 ratio	130 nM	B12
0.5 ratio	–	B6
14 ratio	–	B7
0.4 ratio	–	B8
0.5 ratio	–	B9
2 ratio	–	B10
